Assay results: patent CN112457402A (BEIJING NIUAMBO BIOTECHNOLOGY CO LTD, dated 2021)
Positions count from the first letter of the chain named.

T1: Human CEACAM6 Protein, Human, Recombinant (His Tag) (human, UniProt P40199 35-320, biotinylated in Example 6 (Bio-CEACAM6), site not stated)
T1 construct: Bought recombinant antigen; also called CEACAM6抗原; 人CEACAM6抗原
T1 sequence (looked up): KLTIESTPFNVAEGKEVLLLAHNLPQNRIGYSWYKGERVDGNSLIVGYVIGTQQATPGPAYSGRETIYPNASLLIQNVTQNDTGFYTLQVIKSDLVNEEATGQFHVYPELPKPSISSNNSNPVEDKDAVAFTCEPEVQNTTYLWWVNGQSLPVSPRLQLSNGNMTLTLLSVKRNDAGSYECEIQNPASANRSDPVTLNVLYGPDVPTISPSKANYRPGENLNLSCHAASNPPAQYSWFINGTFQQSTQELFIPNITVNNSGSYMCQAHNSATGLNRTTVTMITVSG

B1: 单域抗体NBC5 (VHH)
VHH: QVKLEESGGGLVQAGGSLRLSCAASGDIDRNDVMHWYRQAPGKQRELVAWIANNGATNYADSVKGRFTISRDNAKNTVYLQMNSLKPEDTAVYYCNVRSLVRRSRDYWGQGTQVTVSS
B2: 单域抗体NBC4 (VHH)
VHH: HVQLVESGGGLVQAGGSLRLSCAVSGSIFSNDVMGWYRQAPGKQRELVAFITNGGVAHSKDPEKGRFTISRDNGKNTVYLQMNSLKPDDTAVYYCNVRSLVERSREYWGQGTQVTVSS
B3: 单域抗体NBC6 (VHH)
VHH: B2 VHH with H1Q, Q3K, V5E, G54E, E63V

Each binder was assayed against T1, Human CEACAM6 Protein, Human, … (assay: phage ELISA, phage-displayed VHH supernatant on coated CEACAM6).

binding result	Binder
binds	B1
binds	B2
binds	B3
